What all share (assay): cell-based or functional assay
In test [1] the target is T1, glucagon receptor (human, UniProt P47871 26-477).
For test [2], the target named is T2, GLP-1 receptor (UniProt P43220 24-463, limits assumed).
In test [3] the target is T1, glucagon receptor. The source holds these as a separate data set.
For test [4], the target named is T1, glucagon receptor. This is another data set of the same source.
For test [5], the target named is T2, GLP-1 receptor. The source holds these as a separate data set.
The target in test [6] is T1, glucagon receptor. The source holds these as a separate data set.
For test [7], the target named is T2, GLP-1 receptor. The source holds these as a separate data set.
Test [8] addresses T1, glucagon receptor. The source holds these as a separate data set.
Test [9] deals with T2, GLP-1 receptor. The source holds these as a separate data set.
Test [10] deals with T1, glucagon receptor. The source holds these as a separate data set.

Ten molecules from patent publication US20110190200A1 (INDIANA UNIVERSITY RESEARCH AND TECHNOLOGY, published 2011) can be followed below.

For orientation: EC50 means the concentration giving half of the maximal effect. The low end stands for a more potent agent, the high end for a less potent agent.

Square brackets hold non-standard residues; d marks the D form. Side chains are listed from the residue outwards. Ends that are not written are not given here. * marks the point of attachment. Palmitoyl = CCCCCCCCCCCCCCCC(=O)*; Aib = CC(C)(N)C(=O)O

T1 sequence (P47871 26-477): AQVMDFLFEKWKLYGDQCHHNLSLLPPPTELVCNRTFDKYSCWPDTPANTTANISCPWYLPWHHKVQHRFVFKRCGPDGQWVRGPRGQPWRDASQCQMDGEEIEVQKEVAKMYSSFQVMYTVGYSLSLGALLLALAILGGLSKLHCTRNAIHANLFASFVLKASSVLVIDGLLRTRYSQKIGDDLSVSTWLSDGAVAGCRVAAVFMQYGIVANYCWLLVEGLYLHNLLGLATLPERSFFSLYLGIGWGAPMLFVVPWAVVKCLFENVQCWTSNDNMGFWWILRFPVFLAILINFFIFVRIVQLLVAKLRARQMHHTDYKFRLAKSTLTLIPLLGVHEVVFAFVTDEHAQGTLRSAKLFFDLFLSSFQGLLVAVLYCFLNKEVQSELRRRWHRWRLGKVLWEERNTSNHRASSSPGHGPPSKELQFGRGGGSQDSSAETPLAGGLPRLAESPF

B1: Peptide 79** (Table 11) (peptide)
peptide: H[Aib]QGTFTSDK([Ala-Ala-Palmitoyl])SKYLD[Aib]RRAQDFVCWLMNT-NH2
modifications: N-terminus assumed
SMILES: CCCCCCCCCCCCCCCC(=O)N[C@@H](C)C(=O)N[C@@H](C)C(=O)NCCCC[C@H](NC(=O)[C@H](CC(=O)O)NC(=O)[C@H](CO)NC(=O)[C@@H](NC(=O)[C@H](Cc1ccccc1)NC(=O)[C@@H](NC(=O)CNC(=O)[C@H](CCC(N)=O)NC(=O)C(C)(C)NC(=O)[C@@H](N)Cc1c[nH]cn1)[C@@H](C)O)[C@@H](C)O)C(=O)N[C@@H](CO)C(=O)N[C@@H](CCCCN)C(=O)N[C@@H](Cc1ccc(O)cc1)C(=O)N[C@@H](CC(C)C)C(=O)N[C@@H](CC(=O)O)C(=O)NC(C)(C)C(=O)N[C@@H](CCCNC(=N)N)C(=O)N[C@@H](CCCNC(=N)N)C(=O)N[C@@H](C)C(=O)N[C@@H](CCC(N)=O)C(=O)N[C@@H](CC(=O)O)C(=O)N[C@@H](Cc1ccccc1)C(=O)N[C@H](C(=O)N[C@@H](CS)C(=O)N[C@@H](Cc1c[nH]c2ccccc12)C(=O)N[C@@H](CC(C)C)C(=O)N[C@@H](CCSC)C(=O)N[C@@H](CC(N)=O)C(=O)N[C@H](C(N)=O)[C@@H](C)O)C(C)C
In the case of B1, the 50% effective concentration (EC50) at Glucagon Receptor in the test with glucagon receptor [1] was determined as 0.01 nM. For the same molecule, in the test with GLP-1 receptor [2], the 50% effective concentration (EC50) at GLP-1 Receptor amounted to 0.008 nM.

For the molecule HSQGTFTSDYSKYLDSRRAQDFVQWLMDE [D28/E29 Glucagon], in the test with glucagon receptor [3], the “EC50, in vitro activity at the glucagon receptor” value is 0.06 nM. Besides, the “Observed EC50s (nM) in Cells Overexpressing the Glucagon Receptor, Test 3” value with glucagon receptor [4] worked out at 0.03 nM.

As to HSQGTFTSDYSKYLD[Aib]RRA[Aib]DFV[Aib]WLMNT [AIB 16, 20, 24 Glucagon], the “GLP-1 Receptor, Average (assay of Example 13)” value in the test with GLP-1 receptor [5] was found to be 12.2 nM.

B2: Peptide dS2K10(C14)E16K20-Gluc Amide (peptide)
peptide: HXQGTFTSDKSKYLDERRAKDFVQWLMNT
modifications: d-Ser at position 2; Lys at position 10 acylated with a C14 fatty acyl group; C-terminal amide
With B2, a half-maximal effect with glucagon receptor [6] (EC50 at the glucagon receptor) was put at 0.155 nM. Further, the “EC50 at the GLP-1 receptor” value with GLP-1 receptor [7] was 0.041 nM.

For HSQGTFTSDYSKYLD[Aib]RRAQDFVQWLMDE [AIB 16/D28/E29 Glucagon], the “EC50, in vitro activity at the glucagon receptor” value in the test with glucagon receptor [3] is 0.08 nM.

B3: Peptide dS2K10(C16)E16K20-Gluc Amide (peptide)
peptide: HXQGTFTSDKSKYLDERRAKDFVQWLMNT
modifications: d-Ser at position 2; Lys at position 10 acylated with a C16 fatty acyl group; C-terminal amide
In the case of B3, the “EC50 at the glucagon receptor” value with glucagon receptor [6] worked out at 0.076 nM. Further, the response in the test with GLP-1 receptor [7] was half-maximal at 0.041 nM (EC50 at the GLP-1 receptor).

B4: Peptide dS2E16K20K30-C14 Gluc Amide (peptide)
peptide: HXQGTFTSDYSKYLDERRAKDFVQWLMNTK
modifications: d-Ser at position 2; Lys at position 30 acylated with a C14 fatty acyl group; C-terminal amide
On to B4, for which the “EC50 at the glucagon receptor” value with glucagon receptor [6] was 3.53 nM. In the test with GLP-1 receptor [7], it took 0.84 nM to reach a half-maximal effect (EC50 at the GLP-1 receptor).

Regarding HSQGTFTSDYSRYLDSRRAQDFVQWLMNK [Glucagon R12 K29], the results for the “cAMP Induction, EC50” value with glucagon receptor [8] and in the test with GLP-1 receptor [9] were 0.81 nM and 0.41 nM, respectively.

Turning to HSQGTFTSDYSKYLD[Aib]RRA[Aib]DFVQWLMNT [AIB 16, 20 Glucagon], in the test with glucagon receptor [10], the “Glucagon Receptor, Average (assay of Example 13)” value was found to be 0.26 nM. In addition, in the test with GLP-1 receptor [5], the “GLP-1 Receptor, Average (assay of Example 13)” value stood at 13.6 nM.

B5: Peptide dS2E16K20K30-C16 Gluc Amide (peptide)
peptide: B4 peptide
modifications: d-Ser at position 2; Lys at position 30 acylated with a C16 fatty acyl group; C-terminal amide
For the molecule B5, the “EC50 at the glucagon receptor” value with glucagon receptor [6] is 4.89 nM. Besides, the “EC50 at the GLP-1 receptor” value with GLP-1 receptor [7] was determined as 3.05 nM.
